Reference: the DeepSol protein solubility set

experiment: soluble on expression in E. coli; label from the status in PepcDB or PDB records

Sequence | soluble on expression in E. coli
MSDEKKSTDIDLKNLKAGGFIKERGKDLFTVRLRVPGGRMPVARLKKIAEVAEKYGQGMVHLSVRQSVELININFRDFDAVVAELGEGTQKVASCGARVRVPTACGGCEYNPNGLVDTQKSALEVDEKLFGTSTGHHKFKVGFAGCPFDCPKSATNDVGFQGAIWPVLYADECIGCGLCDKSCTEDAIVMGDDGKPRFIPENCLYCGDCLKVCPSEAWRAEKKGYTVRIGGKWGRRPLVGTLFAEFLPEEQVFDFIAAVLDWYKEKAEGQGRIRLGDVIRAEGPDALLGYLRERFPAAVVDATIPPQRIATQIGKEKRVPLEHHHHHH | soluble
MSLKQQVPLSTATVSMVHSVPELMVSSEQAEQLGREDQQRLHRNRKLVLMVDLDQTLIHTTEQHCQQMSNKGIFHFQLGRGEPMLHTRLRPHCKDFLEKIAKLYELHVFTFGSRLYAHTIAGFLDPEKKLFSHRILSRDECIDPFSKTGNLRNLFPCGDSMVCIIDDREDVWKFAPNLITVKKYVYFQGTGDMNAPPGSRESQTRKKVNHSRGTEEGHHHHHH | not soluble
MSLEKHRMLVIDDDPIAHQIMQMLFEAELRLTCKVTGEEGLSAVEEEQPEIVLLDIEMEGMDGYEACRRIRQLNLPSQPYIIFVSAHSDPVKRLAAYSVGGEDFVSKPLQPQELTRKVEQALRYRREGHHHHHH | not soluble
MGSDKIHHHHHHMFQLHHKLAADSFLVGDFPLSTCRLINDCQFPWLILVPRVSGIKELYELSEADQTQFLRESSWLSSQLAKTFQADKMNVAALGNQVPQLHFHHIVRYQNDMQWPNPVWGIPAVPYSKEVLAQMQQTLMMALRGHHQMPFDWQM | not soluble
MPGHELEDVINQRLNLYDVLELPTPLDVHTIYDDLPQIKRKYRTLALKYHPDKHPDNPSIIHKFHLLSTATNILTNADVRPHYDRWLIEFLRKTNDIERNKLIQKLEESESSTIPTTTPHPDLLQIQRHGELLRKLKHFNLPYGDWKHLNTQDQENASQHPYYDCSTLRIVLDNFLQSNNKSNCLSHLRNQVFITLSANEIYDIYFSERNNYSKDDSIIIYTVFDTPITAQHVFRNWSSGNLIPTVKDISPLIPLHYYSDFNLETELNDDIARLVSNEPILLD | not soluble
MLTSKPEIKNSELNSYLVGGAVRDKLLNRPIKDEDYLVVGASIEQMIKLGYHQVGKDFPVFLHPKTKAEYALARTERKQGQGYTGFSCYFAPDVTIEQDLLRRDLTVNAMAMDHNGKIIDPYNGQNDLNDRILRHVSDAFIEDPLRVLRVARFAARYHKYGFTIADETLTLMQEISASGELKCLTPERVWQEMQLSLADGGANSDTNSGNPEVFFEVLQQCNALEELWPELAVLWGIPNPALWHPEICSGIHTMMVLQQAVLLTQAIPDEHSDHRTAVRFAALCHDLGKGVTSDKLWPSHKGHETSGLPLVERICGQLKVPSHYKQLALKVCEFHLHCHKAFELKASTLLKMFNQLDIWRKPEEFDLFLMACKSDFLGRLGFENRAYPQEQYLQAAVKAARKVTAQPFLEKGLQGLAIKEAMAKERLSVIANIKADFAHLNPTPQ | not soluble
MKYLPQQDPQVFAAIEQERKRQHAKIELIASENFVSRAVMEAQGSVLTNKYAQGYPGRRYYGGCEYVDIVEELARERAKQLFGAEHANVQPHSGAQANMAVYFTVLEHGDTVLGMNLSHGGHLTHGSPVNFSGVQYNFVAYGVDPETHVIDYDDVREKARLHRPKLIVAAASAYPRIIDFAKFREIADEVGAYLMVDMAHIAGLVAAGLHPNPVPYAHFVTTTTHKTLRGPRGGMILCQEQFAKQIDKAIFPGIQGGPLMHVIAAKAVAFGEALQDDFKAYAKRVVDNAKRLASALQNEGFTLVSGGTDNHLLLVDLRPQQLTGKTAEKVLDEVGITVNKNTIPYDPESPFVTSGIRIGTAAVTTRGFGLEEMDEIAAIIGLVLKNVGSEQALEEARQRVAALTDGG | soluble
MFKIGSVLKQIRQELNYHQIDLYSGIMSKSVYIKVEADSRPISVEELSKFSERLGVNFFEILNRAGMNTKSVNETGKEKLLISKIFTNPDLFDKNFQRIEPKRLTSLQYFSIYLGYISIAHHYNIEVPTFNKTITSDLKHLYDKRTTFFGIDCEIVSNLLNVLPYEEVSSIIKPMYPIVDSFGKDYDLTIQTVLKNALTISIMNRNLKEAQYYINQFEHLKTIKNISINGYYDLEINYLKQIYQFLTDKNIDSYLNAVNIINIFKIIGKEDIHRSLVEELTKISAKEKFTPPKEVTMYYENYVAIENNPIPEIKEQS | soluble
MPVYFTKRAFLPDGWAADVQIAVDELGDIQRISTGSSSSGCQVLSGPVLPGMPNLHSHAFQRMMSGLAEVAGDPQDSFWTWRDLMYRLVQQLTPEQVGVIARQLYIEMLKGGYTQVAEFHYLHHSPDGSPYNDIGEMTAQLSQAAQDAGIGMTLLPVLYSYAGFGAQPAQQGQSRFIQDTESYLRQQQVIRRQLANQPLQNQGLCFHSLRAVELSQMQQILHVSDKQLPVHIHIAEQQKEVNDCLAWCGQRPVAWLYGHLPVDSRWCLVHATHLDTSELVMLANSQAVAGLCPTTEANLGDGIFPGVDYIHHQGRWGIGSDSHVSLDVVEELRWLEYGQRLRDQRRNRLTCERQPAVADLLYSQALAGGRQACGRQISQLAVGYRADWLVLDGDDPYIAGTRSASLLNRWLFAGGKSQIRDVYVAGKAVIVDRYHPLQQQTAQAFLAVLKACQQEV | not soluble
MAHHHHHHMSVEELFATARKYSDSVVGGPAWDRLFSLRLTNEEILCIAKKMILSQPTFLMEVNGTKLEEIPPLAVAVRIEAFTNVPKSEGESGGVEKAVALEEKRTAAQQREVLRELASVRAQYRAVLREGNDLMACIDEEERRWNKIEMHREEEQRKRKEHPAAPPSEHDEHIRKNVCALETLQQKREKEEESAQATARTVMAEKKRKKTGKGSRGGGGSEKKFASTSNVTSKEAEIRNVRAHNTALRRLLEKLANELKEEEQTMENLSIDLRGFMSDINKLEKAKLLLTVEHGMLMNTTARLQQSLRDQKEKLRQEQEAAAAEQREISRRLLVQQERTKKSLHEKNGTTELLHRLKTNLSK | not soluble
MKRAVVVFSGGQDSTTCLVQALQQYDEVHCVTFDYGQRHRAEIDVARELALKLGARAHKVLDVTLLNELAVSSLTRDSIPVPDYEPEADGIPNTFVPGRNILFLTLAAIYAYQVKAEAVITGVCETDFSGYPDCRDEFVKALNHAVSLGMAKDIRFETPLMWIDKAETWALADYYGKLDLVRNETLTCYNGIKGDGCGHCAACNLRANGLNHYLADKPTVMAAMKQKTGLR | not soluble
MSTKYLFIYNEIREKILCNKYTMNEQLPDEMTLAKQFACSRMTIKKALDLLVSEGLIFRKRGQGTFVLSRGSSKRKLIVPERDIRGLTKISEDAHSTIDSRIIHFKLEFANEFLAEKLQVALQSPVYNIYRLRIIDGKPYVLEQTYMSTDVIPGITEDILQKSIYNYIEGKLGLHIASATKILRASSSSENEQHYLQLLPTEPVFEVEQVAYLDNGTPFEYSISRHRYDLFEFNSFALRHSS | not soluble
MSLIYQTPDALDLQLDRIPSLPPPRRVVLTTPTHFDVEYVINPHMSENVGAVNTDVAWQQWKALRAAYTALDHTPVLVNGQSGLPDMVFCANQTLPFYDPASDSKGVVLSRMHSEQRADEVPYYARFFEEEGYAVDTLPEDLDADFEGMGDALWHPGHHLLWGGYGYRTSPEAYEALGDLLDVPIVALRLVDPDYYHLDTCLCPLDARHALVAPEAFDDAGRALIDALFETVIEVPDHEARHQFACNAHCPDGAHVLIQEGCEGTNAQLRNHDFVPVELDTSEFMKSGGSVFCMKQMIWEGHHHHHH | soluble
MSIRAEEISALIKQQIENYQSEIEVSDVGTVIQVGDGIARAHGLDNVMAGELVEFSNGVMGLAQNLEENNVGIIILGPYTEIREGDEVRRTGRIMQVPVGKELIGRVVNPLGQPVDGLGPINTTNTRPIESPAPGVMDRKSVHEPLQTGIKAIDALVPIGRGQRELIIGDRQTGKTAVALDTIINQKDEDMICIYVAIGQKESTVRNVVETLRKHGALEYTIVVTASASQPAPLLYLAPYAGVTMGEEFMYNGKHVLVVYDDLSKQAAAYRELSLLLRRPPGREAYPGDVFYLHSRLLERAAKLSDAKGGGSLTALPFIETQAGDVSAYIPTNVISITDGQIFLQSDLFFSGVRPAIDAGTSVSRVGGSAQIKAMSKVSGTLRLDLASYRELEAFAQFGSDLDKATQAKLNRGARTVEVLKQGLHKPLRVEKQVIILYALTRGFLDDIPVVDITRFEEEFHAWLDSNATDLLEEIRTTKKLADDDKFAAAINGFKKVFVASE | not soluble
